Results published in the nanobody polyreactivity screen of Harvey et al. (2022).

Assay: yeast display, Sf9 membrane polyspecificity reagent, FACS + sequencing; frameworks hold sequencing errors
Summary of the method: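 Galactose-induced (36–48 hours) yeast carrying a synthetic nanobody display library were exposed to 10% biotinylated, detergent-solubilized Sf9 membrane reagent at 4 °C for 1 hour. FACS followed streptavidin microbead enrichment, using low and high (top ~1%) gates for expression (anti-HA) and reagent binding (streptavidin). Colony PCR, MiSeq 2 × 250 sequencing and CDR-length filtering followed. Labels for polyreactivity reflect the gate of origin.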

Sequence | polyreactivity (PSR sort gate)
QVQLVESGGGLVQAGGSLRLSCAASGLTFAAYAMGWYRQAPGKEREMVAAISRRGGSTYYADSVKGRFTISRDNAKNTVYLQMNRLKPEDTAVYYCARGGSRLTQGWLVTPYDYDYWGQGTQVNVSS | high polyreactivity
QVQLVESGGGLVQAGGSLRLSCAASGLTFAFYAMGWYRQAPGKERELVAAISGSGGSTNYADSVKGRFTISRDNAKNTVYLQMNSLKPEDTAVYYCAATYTYSWAYGYWGQGTQVTVSS | high polyreactivity
QVQLVESGGGLVQAGGSLRLSCAASGLTFAKYAMGWYRQEPGKEREFVAAITYSGGTTYYADSVKGRFTISRDNAKNTVYLQMNSLKPEDTAVYYCNTRSTLGYYWGQGTQVTVSS | high polyreactivity
QVQLVESGGGLVQAGGSLRLSCAASGLTFARYAMGWSRQAPGKERELVAAISSSGGTKYADSVKGRFTISRDNAKNTVYLQMNSLIPEDTAVYYCNADAVVERSSVWYYWSIYEYWGQGTQVTVSS | low polyreactivity
QVQLVESGGGLVQAGGSLRLSCAASGLTFAVYAMGWYRQAPGKERELVASITRSGGSTYYADSVKGRFTISRDNAKNTVYLQMNSLKPEDTAVYYCAAQTIYSGRYYYYSRYDYWGQGTQVTVSS | high polyreactivity
QVQLVESGGGLVQAGGSLRLSCAASGLTFDHYTMGWYRQATGLERELVAAITKNGGSTYYADSVKGRFTISRDNAKNTVYLQMISLKPEDTAVYYCNVGPRRVDRSRAASSDYDYWGQGTQVTVSS | high polyreactivity
QVQLVESGGGLVQAGGSLRLSCAASGLTFDVYAMGWYRQAPGKERELVAAISSIGGSTYYADSVKGRFTISRDNAKNTVYLQMNSLKPEDTAVYYCNADYFGGGDYWGQGTQVTVSS | low polyreactivity
QVQLVESGGGLVQAGGSLRLSCAASGLTFERYAMGSYIQAPGKERELVAAISGSGGSTYYADSVKGRFTISRDNAKNTVYLQMNSLKPEDTAVYYCAAYPTVWYDYWGQGTQVTVSS | high polyreactivity
QVQLVESGGGLVQAGGSLRLSCAASGLTFERYAMGWYRQAPGKERELVADITWSGGRTYYADSVKGRFTISRDNAKNTVYLQMNSLKPEDTAVYYCAADVYPGYVGSQEYDYWGQGTQVTVSS | low polyreactivity
QVQLVESGGGLVQAGGSLRLSCAASGLTFEYNAMGWYRQAPGKERELVAAITSGVNTYYADSVKGRFTISRDNAKNTVYLQMNSLKPEDTAVYYCAKYRWNWRYVSRGDSWGQGTQVTVSS | high polyreactivity
QVQLVESGGGLVQAGGSLRLSCAASGLTFEYYTMGWYIQAPGKERELVAAITSSGGSTYYADSVKGRFTISRDNAKNTVYLQMNSLKPVDTAVYYCAAYQIYQYDGTYDYWGQGTQVTVSS | low polyreactivity
QVQLVESGGGLVQAGGSLRLSCAASGLTFEYYTMGWYRQAPGKERELVAAITSSGGSTYYADSVKGRFTISRDNAKNTVYLQMNSLKPEDTAVYYCAADYYTWYGILYDYWGQGTQVTVSS | low polyreactivity
QVQLVESGGGLVQAGGSLRLSCAASGLTFFGNAMGWYRQAPGKERELVATISSGGGTSYADSVKGRFTISRDNAKNTVYLQMNSLKPEDTAVYFCAAEIVEEFDYWGQGTQVTVSS | low polyreactivity
QVQLVESGGGLVQAGGSLRLSCAASGLTFFKYTMGWYIQAPGKERELVAAINGGGSTNYADSVKGRFTISRDNAKNTVYLQMNSLKPEDTAVYYCAAGLPYGYDYWGQGTQVTVSS | low polyreactivity
QVQLVESGGGLVQAGGSLRLSCAASGLTFGDNAMGWYRQAPGKERELVAAITTSGPSTYYADSVKGRFTISRDNAKNTVYLQMNSLKPEDTAVYYCAADGLFYWVQYGYWGQGTQVTVSS | low polyreactivity
QVQLVESGGGLVQAGGSLRLSCAASGLTFGDYAMGWYRQAPGKEWELVAVITSSGSTYYADSVKGRFTISRDNAKNTVYLQMNSLKPEDTAVYYCATSAPAYRWRERYYYWGQGTQVTVSS | high polyreactivity
QVQLVESGGGLVQAGGSLRLSCAASGLTFGDYTMGWYRQAPGKERELVAAITWSGASTYYADSVKGRFTISRDNAKNTVYLQMNSLKPEDTAVYYCADERTPSYRAYDYWGQGTKVTVSS | low polyreactivity
QVQLVESGGGLVQAGGSLRLSCAASGLTFGGNAMGWYRQAPGKERELVAAISSGGSTNYADSVKGRFTISRDNAKNTVYLQMNSLKPEDTAVYYCAARDRPGNYFTVYGYWGQGTQVTVSS | low polyreactivity
QVQLVESGGGLVQAGGSLRLSCAASGLTFGGNAMGWYRQAPGKERELVAAISWSDDTTDYADSVKGRFTISRDNAKNTVYLQMNSLKPEDTAVYYCADRLPFEHVDYWGQGTQVTVSS | low polyreactivity
QVQLVESGGGLVQAGGSLRLSCAASGLTFGGNAMGWYRQAPGKERELVAAISWSDDTTDYADSVKGRFTISRDNAKNTVYVQMNSLKPEDTAVYYCAARLPFEHVDYWGQGTQVTVTS | low polyreactivity
QVQLVESGGGLVQAGGSLRLSCAASGLTFGRNAMGWYRQAPGKERELVAAISRSGGRTSYADSVKGRFTISRDYAKNTVYLQMNSLKPEDTSVYFCAALSDVYTHDYWGQGTQVTVSS | high polyreactivity

Sequence | polyreactivity (PSR sort gate)
QVQLVESGGGLVQAGGSLRLSCAASGLTFGTYAMGWYRQAPGKERELVAAIRSGGSTNYADSVKGRFTISRDTAKNTVYLQMNILKPEDNAVYYCAKRYYWDRYYYWGQGTPVTVSS | high polyreactivity
QVQLVESGGGLVQAGGSLRLSCAASGLTFGWYAMGWYRQAPGKERELVASITRRSGSTYYADSVKGRFTISRDNAKNTVYLQMNSLKPEDTAVYYCNAVPGYVYYYQYWGQGTQVTVSS | high polyreactivity
QVQLVESGGGLVQAGGSLRLSCAASGLTFGYYAMGWYRQAPGKERELVAAISVSGSTYYADSVKGRFTISRDNAKNTVYLQMNSLKPEDTAVYYCNRAIGYRKELDYWGQGTQVTVSS | high polyreactivity
QVQLVESGGGLVQAGGSLRLSCAASGLTFGYYAMGWYRQAPGKERELVAVISGGGGTHYADSVKGRFTISRDNAKNTVYLQMNSLKPEDTAVYYCAARYRAQQIARYYYWGQGTQVTVSS | high polyreactivity
QVQLVESGGGLVQAGGSLRLSCAASGLTFGYYTMGWYRQAPGKERELVAAITYSGGSTYYADSVKGRFTISRDNAKNSVYLQMYSLKPEDTAVYYCAADGPVYTTYEYWGQGTQVTVSS | low polyreactivity
QVQLVESGGGLVQAGGSLRLSCAASGLTFGYYTMGWYRQAPGKERELVAAITYSGGSTYYADSVKGRFTISRDNAKNTVYLQMNSLKPEDTAVYYCAAEGPVYTTYEYWGQGTQVTVSS | low polyreactivity
QVQLVESGGGLVQAGGSLRLSCAASGLTFHRYAMGWYRPAPGKERELVAGISWSGASTYYADSVKGRFTISRDNAKNTVYLQMNSLKPEDTAVYYCAARRYYKYDWGQGTQVTVSS | high polyreactivity
QVQLVESGGGLVQAGGSLRLSCAASGLTFIAYAMGWYRQAPGKERELVAAITWIGDSTYYADSVKGRFTISRDNAKNTVYLQMNSLKPEDTAVYYCATDWYGQYNGIYDYWGQGTQVTVSS | low polyreactivity
QVQLVESGGGLVQAGGSLRLSCAASGLTFIFNTMGWYRQAAGKERVLVAAISTSGGSTYYADSVKGRFTISRDNANNTVYLQMNSVKQEDTAFYYCAKEFKYWGYPYEYWGQGTLVTVSS | low polyreactivity
QVQLVESGGGLVQAGGSLRLSCAASGLTFIFYAMGWYRPAPGKERELVAAISVSGGSTYYADSVKGRFTISRDNAKNTVYLQMNSLKPEDTAVYYCAADREHFATYGPHMDYWGQGTQVTVSS | low polyreactivity
QVQLVESGGGLVQAGGSLRLSCAASGLTFIHYSMGWYRQAPGKEREFVAAISTNSGSTYYADSVKGRFTISRDNAKNTVYLQMNSLKPEDTAVYYCAARGLRWRIDGEYWGQGTQVTVSS | high polyreactivity
QVQLVESGGGLVQAGGSLRLSCAASGLTFIRYAMGWYRQAPGKQRELVAAISTSGGRTYYADSVKGRFTISRDNAKNNVYLQMNILTPEDTAVYYCNAYWRQGYYPEYYYWGQGTQVTVSS | high polyreactivity
QVQLVESGGGLVQAGGSLRLSCAASGLTFIYYAMGWYRQAPGKERELVAAISTSGASTYYADSVKGRFTISRDNAKNTVYLQMNSLKPEDTAVYYCNAEYFGEYRDYGYWGQGTQVTVSS | low polyreactivity
QVQLVESGGGLVQAGGSLRLSCAASGLTFIYYAMGWYRQAPGKERELVARINNGDNTYYADSVKGRFTISRDNAKNTVYLQMNRLNPEDTAVYYCAAARYSRLSRTRPGKYGYWGQGTQVTVSS | low polyreactivity
QVQLVESGGGLVQAGGSLRLSCAASGLTFIYYAMGWYRQARGKERELVAAISRSGGSTYYADSVKGRFTISRDNAKNTVYLQMNSLKPEDTAVYYCAADGTKYSGRVTGDYWGQGTQVTVSS | high polyreactivity
QVQLVESGGGLVQAGGSLRLSCAASGLTFKDNVMGWYRQAPGKERELVAAISSSGGSTYYADSVKGRFTLSRDNAKNTVYLQMNSLKPEDTAVYYCAAPTFSRYYYWGQGTQVTVSS | high polyreactivity
QVQLVESGGGLVQAGGSLRLSCAASGLTFKFNAMGWYRQAPGKERELVAAITYSGGSTYYADSVKGRFTISRDNAKNTVYLQMNSLKPDDTAVYYCAAEGWWGYYRYNYWGQGTQVTVSS | high polyreactivity
QVQLVESGGGLVQAGGSLRLSCAASGLTFKQYALGWYRQAPGKERELVAAITVSGGDTYYADSVKGRFTISRDNAKNSVYLQMNSLKPVDTAVYYCAADHFFWGYDYWGQGTQVTVSS | high polyreactivity
QVQLVESGGGLVQAGGSLRLSCAASGLTFKVYAMGWYRQAPGKERELVAAISWSGGSTYYADSVKGRFTISRDNAKNTVYLQMNSLKPEDTAVYYCAARGYAWYRGNYDYWGQGTQVTVSS | high polyreactivity
QVQLVESGGGLVQAGGSLRLSCAASGLTFKVYAMGWYRQAPGKERELVAAISWSGGSTYYADSVKGRFTISRDNAKNTVYLQMNSLKPEDTAVYYCAVEPSYYVVFFPYEYWGQGTQVTVSS | low polyreactivity
